Drawing on the Immune Epitope Database (IEDB), this text covers Kd for 31 sequences.

Some results are limits rather than exact numbers.

Test [1] addresses HLA-B*51:01. In words: IEDB peptide-MHC binding, purified MHC/competitive/radioactivity; filed as Kd, often an IC50 or EC50 that approximates it; ≥ and ≤ were set here for values at or beyond the usual limits of such assays.
For another test, the target named is HLA-A*30:01. The description is as above.
For a further test, the target named is HLA-B*35:01. The test is described as above.
For another test, the target named is HLA-A*30:02. The test is described as above.
Another test concerns the target HLA-A*32:01. The test is described as above.
For a further test, the target named is HLA-B*15:01. Described as above.
The next test deals with HLA-B*53:01. The description is as above.
The target in test [2] is HLA-A*26:01. The test can be described thus: IEDB peptide-MHC binding, purified MHC/competitive/fluorescence; filed as Kd, often an IC50 or EC50 that approximates it; ≥ and ≤ were set here for values at or beyond the usual limits of such assays. The settings on record: source organism: Bacillus anthracis str. A0488.
The next test has as its target HLA-B*44:02. The test can be described thus: IEDB peptide-MHC binding, purified MHC/competitive/radioactivity; filed as Kd, often an IC50 or EC50 that approximates it; ≥ and ≤ were set here for values at or beyond the usual limits of such assays. The settings on record: source organism: Dengue virus 2 Jamaica/1409/1983.
For a further test, the target named is HLA-A*24:03. In words: IEDB peptide-MHC binding, purified MHC/direct/fluorescence; filed as Kd, often an IC50 or EC50 that approximates it; ≥ and ≤ were set here for values at or beyond the usual limits of such assays.
For the next test, the target named is HLA-B*07:02. The test can be described thus: IEDB peptide-MHC binding, purified MHC/competitive/radioactivity; filed as Kd, often an IC50 or EC50 that approximates it; ≥ and ≤ were set here for values at or beyond the usual limits of such assays.
For a further test, the target named is HLA-A*03:01. Described as above. The conditions noted are these: source organism: Mammarenavirus brazilense.
For a further test, the target named is HLA-A*31:01. The description is as above. The settings on record: source organism: Mammarenavirus brazilense.
Another test has as its target HLA-A*33:01. Described as above. The settings on record: source organism: Mammarenavirus brazilense.
A further test deals with HLA-A*68:01. The test is described as above. The settings on record: source organism: Mammarenavirus brazilense.
The next test addresses HLA-A*23:01. Described as above.
A further test addresses HLA-A*24:02. The description is as above.
The target of another test is HLA-A*01:01. Described as above. The settings on record: source organism: Mammarenavirus machupoense.
In test [3] the target is HLA-A*26:01. The description is as above. The conditions noted are these: source organism: Mammarenavirus machupoense.
Another test addresses HLA-A*29:02. The description is as above. The settings on record: source organism: Mammarenavirus machupoense.
The target of test [4] is HLA-B*51:01. In words: IEDB peptide-MHC binding, purified MHC/competitive/fluorescence; filed as Kd, often an IC50 or EC50 that approximates it; ≥ and ≤ were set here for values at or beyond the usual limits of such assays. The conditions noted are these: source organism: Escherichia coli K-12.
[5] abbreviates: source organism: Dengue virus 3 Martinique/1243/1999.
[6] abbreviates: source organism: Dengue virus 1 Brazil/97-11/1997.
The mark [7] stands for this setting: source organism: Dengue virus 4 Philippines/H241/1956.
Where [8] appears, read: source organism: Dengue virus 3 Sri Lanka/1266/2000.
Where [9] appears, read: source organism: Vaccinia virus WR.
[10] abbreviates: source organism: Dengue virus 2 Jamaica/1409/1983.
Setting [11] is: source organism: Dengue virus 4 Dominica/814669/1981.
Setting [12] is: source organism: Mammarenavirus machupoense.

In general, Kd refers to the free concentration of one partner at which half of the binding sites on the other are occupied at equilibrium, for simple one-to-one binding. In the case of LALFLAHYI, in the test with HLA-B*51:01 [1] (setting [5]), the Kd was determined as 0.342 µM.

As to LARWGTFKK, in the test with HLA-A*30:01 (setting [5]), the Kd was 316 nM.

On to LPVWLAHKVA, for which the equilibrium dissociation constant (Kd) with HLA-B*35:01 (setting [5]) turned out to be 6.68 µM.

Regarding LRHPGFTVI, the Kd in the test with HLA-B*51:01 [1] (setting [6]) was not below 10 µM.

MATFKMRPMF: the dissociation constant Kd with HLA-A*30:01 (setting [6]) is 1790 nM.

With MAVFKMSPGY, the Kd with HLA-A*30:02 (setting [7]) came out at 501 nM; with HLA-B*35:01 (setting [7]), 0.667 µM.

For the sequence MILPAALAF, the Kd in the test with HLA-A*32:01 (setting [8]) amounted to 29.5 nM; with HLA-B*15:01 (setting [8]), 6.87 nM; with HLA-B*35:01 (setting [8]), 0.394 µM.

As to MPSVVETLEQ, the dissociation constant Kd with HLA-B*35:01 (setting [6]) stood at 6.11 µM; with HLA-B*53:01 (setting [6]), 1200 nM.

With MTRDPLYIY, in the test with HLA-A*30:01 (setting [9]), the Kd stood at 16.9 nM.

For the sequence NTVKSFLNF, in the test with HLA-A*26:01 [2], the Kd is 269 nM.

With PPFGDSYII, the results for the Kd with HLA-B*51:01 [1] (setting [10]) and in the test with HLA-B*53:01 (setting [10]) were 9.78 µM and 1740 nM, respectively.

Consider RAKRGTAQI, for which the Kd with HLA-A*30:01 (setting [6]) was found to be 137 nM.

For the sequence RGRIGRNPK, in the test with HLA-A*30:01 (setting [10]), the Kd came to 18.7 nM.

As to RIKQQGIFG, the equilibrium dissociation constant (Kd) in the test with HLA-A*30:01 (setting [5]) came out at 19.9 nM.

Take RMAILGDTAW: the Kd is 233 nM with HLA-B*15:01 (setting [10]), 451 nM with HLA-B*44:02 and 21.4 nM with HLA-B*53:01 (setting [10]).

Consider RTKDTRIKA, for which the Kd with HLA-A*30:01 (setting [9]) worked out at 0.196 nM.

As for RYPIDPFLL, the Kd with HLA-A*24:03 (source organism: Mammarenavirus lassaense) turned out to be 5.6 nM.

For SPAATQKAAL, the Kd with HLA-B*07:02 (source organism: Dengue virus 4 Singapore/8976/1995) came to 3.66 nM.

Regarding SPGYVLGIFL, in the test with HLA-B*07:02 (setting [7]), the Kd is 116 nM.

SPKRLATAIA: the Kd with HLA-B*07:02 (setting [5]) was 34.1 nM.

For the sequence STYYVHENK, the Kd in the test with HLA-A*03:01 came out at 5.16 nM; in the test with HLA-A*30:01 (source organism: Mammarenavirus brazilense) it was 3320 nM; with HLA-A*31:01, 57.3 nM; with HLA-A*33:01, 454 nM; with HLA-A*68:01, 13 nM.

With TPNLAERVL, in the test with HLA-B*07:02 (source organism: Dengue virus 1 Singapore/S275/1990), the Kd came out at 114 nM.

As for TPQDNQLTYV, the dissociation constant Kd with HLA-B*07:02 (setting [10]) amounted to 1330 nM; with HLA-B*51:01 [1] (setting [10]), 16.4 µM.

Turning to TPRGAVMDII, the values for the Kd with HLA-B*07:02 (setting [11]) and in the test with HLA-B*51:01 [1] (setting [11]) were 8.05 nM and 1.35 µM, respectively.

With TPRSPSVEV, the Kd in the test with HLA-B*07:02 (setting [7]) was 2.58 nM; with HLA-B*51:01 [1] (setting [7]) it was 0.538 µM.

Take TTTDSRCPTQ: the dissociation constant (Kd) with HLA-A*30:01 (setting [6]) was not below 51200 nM.

Consider VTNIELEPPF, for which the Kd with HLA-A*30:01 (setting [7]) is 468 nM.

For YAQMWSLMYF, the Kd in the test with HLA-A*23:01 (setting [5]) was 594 nM; with HLA-A*24:02 (setting [5]), 247 nM; with HLA-B*15:01 (setting [5]), 9.91 nM; in the test with HLA-B*51:01 [1] (setting [5]), 12.9 µM; with HLA-B*53:01 (setting [5]), 106 nM.

Take YFHAELNYL: in the test with HLA-A*24:03 (source organism: Vibrio vulnificus), the Kd came to 3.7 nM.

As to YKELCDAVY, the Kd in the test with HLA-A*01:01 was 4.06 µM; in the test with HLA-A*23:01 (setting [12]) it was not below 40500 nM; with HLA-A*24:02 (setting [12]), not below 77500 nM; with HLA-A*26:01 [3], not below 77.9 µM; with HLA-A*29:02, 3.2 µM; in the test with HLA-A*30:01 (setting [12]), not below 54300 nM. Moreover, the Kd with HLA-A*30:02 (setting [12]) was 1420 nM; with HLA-A*32:01 (setting [12]) it was not below 77800 nM.

For YPYSDDLTI, in the test with HLA-B*51:01 [4], the Kd is 281 nM.
